Assay [1] concerns the target BSA (UniProt P02769 25-607). The assay can be described thus: ELISA. In general terms: In an ELISA, binding on a coated surface is turned into a signal by an enzyme label.
Assay [2] concerns the target T1, OVA (UniProt P01012 2-386).
T1 sequence: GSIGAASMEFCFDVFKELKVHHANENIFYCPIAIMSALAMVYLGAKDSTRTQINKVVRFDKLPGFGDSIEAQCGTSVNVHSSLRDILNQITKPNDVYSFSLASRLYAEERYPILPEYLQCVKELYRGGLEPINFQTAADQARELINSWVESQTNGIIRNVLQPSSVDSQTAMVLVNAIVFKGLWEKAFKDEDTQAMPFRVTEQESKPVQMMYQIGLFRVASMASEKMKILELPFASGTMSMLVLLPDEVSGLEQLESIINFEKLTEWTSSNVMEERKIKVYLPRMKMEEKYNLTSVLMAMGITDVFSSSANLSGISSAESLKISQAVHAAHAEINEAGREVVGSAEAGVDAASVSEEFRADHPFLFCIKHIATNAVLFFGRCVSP
The assay can be described thus: ELISA.

Chain of BSA (P02769 25-607 limits assumed): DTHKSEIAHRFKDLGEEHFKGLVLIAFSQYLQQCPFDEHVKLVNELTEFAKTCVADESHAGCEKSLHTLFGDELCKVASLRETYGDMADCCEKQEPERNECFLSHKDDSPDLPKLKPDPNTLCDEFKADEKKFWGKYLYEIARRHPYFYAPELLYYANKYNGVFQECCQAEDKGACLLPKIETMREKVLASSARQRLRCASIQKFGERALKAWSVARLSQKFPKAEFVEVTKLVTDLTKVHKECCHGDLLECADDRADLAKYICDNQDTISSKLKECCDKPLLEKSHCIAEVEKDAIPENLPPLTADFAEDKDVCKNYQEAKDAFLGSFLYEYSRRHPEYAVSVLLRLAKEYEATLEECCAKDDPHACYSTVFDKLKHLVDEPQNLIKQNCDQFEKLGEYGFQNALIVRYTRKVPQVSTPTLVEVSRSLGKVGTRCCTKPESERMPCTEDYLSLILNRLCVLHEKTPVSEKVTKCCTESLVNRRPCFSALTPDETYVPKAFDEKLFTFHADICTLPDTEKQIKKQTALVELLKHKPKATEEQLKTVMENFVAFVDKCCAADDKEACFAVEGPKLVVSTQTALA

B1: C40 (antibody, V domains shown)
VH: QLQLQESGPGLVKPSETLSLTCTVSGGSISSSFYYCGWIRQPPGKGLEWIGSIYYRGSTYYNPSLKSRVTISVDTSKNQFSLKLSSVTAADTAVYYCARRVTMVRGVKGDYFDYWGQGTLVTVSS
VL: DIQMTQSPSSLSASVGDRVTITCRASQGISSWLAWYQQKPEKVPKSLIYAASSLQSGVPSRFSGSGSGTDFTLTISSLQPEDFATYYCQQYNYYPLTFGGGTKVEIKR
With B1, the binding result in assay [1] and in assay [2] was “no binding (tested: below 0.1 at OD450nm)” throughout.

B2: C40G1 (antibody, V domains shown)
VH: QLQLQESGPGLVKPSETLSLTCTVSGGSISSSFYYCGWIRQPPGKGLEWIGSIYYRGSTYYNPSLKSRVTISVDTSKNQFSLKLSSVTAADTAVYYCARRVTMVRGVKGDYFDYWGQGTLVTVSS
VL: DIQMTQSPSSLSASVGDRVTITCRASQGISSWLAWYQQKPEKVPKSLIYAASSLQSGVPSRFSGSGSGTDFTLTISSLQPEDFATYYCQQYNYYPLTFGGGTKVEIKR
As to B2, the binding result in assay [1] and in assay [2] was “no binding (tested: below 0.1 at OD450nm)” in each case.

B3: N547 (antibody, V domains shown)
VH: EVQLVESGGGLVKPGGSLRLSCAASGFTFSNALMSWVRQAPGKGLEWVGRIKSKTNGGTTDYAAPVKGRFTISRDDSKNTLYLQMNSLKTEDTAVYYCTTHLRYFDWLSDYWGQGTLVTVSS
VL: QSVLTQPPSMSAAPGQKVTISCSGSSSNIGNNYISWYQQLPGTAPKVLIYDNNKRPSGIPDRFSGSKSGTSATLGITGLQTGDEADYYCGSWDSSLSAGVFGTGTKVTVLG
On to B3, for which the binding result in assay [1] and in assay [2] was “no binding (tested: below 0.1 at OD450nm)” each time.

B4: L66 (antibody, V domains shown)
VH: EVQLVESGGGVVRPGGSLRLSCAASGFTFDDYGMSWVRQAPGKGLEWVSGINWNGGSTGYADSVKGRFTISRDNAKNSLYLQMNSLRAEDTALYYCARDRVTMVRGVIMDYYGMDVWGQGTTVTVSS
VL: QTVVTQEPSLTVSPRGTVTLTCSSSTGAVTSGYYPGWFQLKPGQAPMSLIYSARKKHSWTPARFSGSLLGGKAALTLSGVQPEDEAEYYCLLYYGGAYVFGTGTKVTVLG
For the molecule B4, the binding result in assay [1] and in assay [2] was “no binding (tested: below 0.1 at OD450nm)” each time.

The record behind these values is patent US20090162366A1 (KIRIN PHARMA, published 2009).
